In IntAct's records for PubMed 24591568:

B1: Rab11 family-interacting protein 5 (Homo sapiens), Q9BXF6 (parent)
chain: MALVRGAEPAAGPSRWLPTHVQVTVLRARGLRGKSSGAGSTSDAYTVIQVGREKYSTSVVEKTHGCPEWREECSFELPPGALDGLLRAQEADAGPAPWAASSAAACELVLTTMHRSLIGVDKFLGQATVALDEVFGAGRAQHTQWYKLHSKPGKKEKERGEIEVTIQFTRNNLSASMFDLSMKDKPRSPFSKIRDKMKGKKKYDLESASAILPSSAIEDPDLGSLGKMGKAKGFFLRNKLRKSSLTQSNTSLGSDSTLSSASGSLAYQGPGAELLTRSPSRSSWLSTEGGRDSAQSPKLFTHKRTYSDEANQMRVAPPRALLDLQGHLDAASRSSLCVNGSHIYNEEPQGPVRHRSSISGSLPSSGSLQAVSSRFSEEGPRSTDDTWPRGSRSNSSSEAVLGQEELSAQAKVLAPGASHPGEEEGARLPEGKPVQVATPIVASSEAVAEKEGARKEERKPRMGLFHHHHQGLSRSELGRRSSLGEKGGPILGASPHHSSSGEEKAKSSWFGLREAKDPTQKPSPHPVKPLSAAPVEGSPDRKQSRSSLSIALSSGLEKLKTVTSGSIQPVTQAPQAGQMVDTKRLKDSAVLDQSAKYYHLTHDELISLLLQRERELSQRDEHVQELESYIDRLLVRIMETSPTLLQIPPGPPK
B2: Rab11 family-interacting protein 5 (Homo sapiens), Q9BXF6 (parent)
chain: B1 chain
partner: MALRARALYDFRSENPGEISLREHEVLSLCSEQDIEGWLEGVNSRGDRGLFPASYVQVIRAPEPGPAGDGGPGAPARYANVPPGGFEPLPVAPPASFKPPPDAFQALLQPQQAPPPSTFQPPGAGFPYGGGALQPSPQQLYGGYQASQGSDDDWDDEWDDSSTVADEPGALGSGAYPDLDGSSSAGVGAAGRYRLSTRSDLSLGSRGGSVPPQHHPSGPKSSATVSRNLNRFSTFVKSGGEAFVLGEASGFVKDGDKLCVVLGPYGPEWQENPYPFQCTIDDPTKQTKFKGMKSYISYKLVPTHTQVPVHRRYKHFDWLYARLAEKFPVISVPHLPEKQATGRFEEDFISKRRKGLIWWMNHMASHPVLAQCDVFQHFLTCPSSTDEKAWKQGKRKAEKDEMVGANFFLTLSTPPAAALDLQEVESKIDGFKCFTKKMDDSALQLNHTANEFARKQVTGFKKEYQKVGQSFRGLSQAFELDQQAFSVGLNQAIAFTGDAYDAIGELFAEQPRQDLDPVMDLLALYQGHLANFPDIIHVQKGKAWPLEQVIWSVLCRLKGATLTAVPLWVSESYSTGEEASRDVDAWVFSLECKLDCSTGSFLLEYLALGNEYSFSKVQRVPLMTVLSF

Variants of: B1
Conditions: with kif3a_human KIF3A

Row | effect of a mutation on the interaction | Variant
1 | increasing interaction | T276D

Variants of: B1
Conditions: with kif3a_human KIF3A
Remark: another data set of the same source

Row | effect of a mutation on the interaction | Variant
2 | increasing interaction | T276A

Variants of: B2
Conditions: with snx18_human SNX18, Q96RF0

Row | effect of a mutation on the interaction | Variant
3 | increasing interaction | T276A

Variants of: B2
Conditions: with snx18_human SNX18, Q96RF0
Remark: another data set of the same source

Row | effect of a mutation on the interaction | Variant
4 | decreasing interaction | T276D
